MFI data for one substance are collected here from publication PMC10189049.

The assay addresses TCR Vβ3.1 on CH7C17 Jurkat cells. Kind of assay: fluorescence microscopy of labelled protein on cells.

Turning to “Staphylococcal Enterotoxin B (from UniProt P01552 28-266) (natural protein)”, the MFI at 5 minutes is 427.
